The record followed here is patent US20180326085A1 (Merck KGaA, published 2018).

One assay has as its target T1, c-MET on cells (human, UniProt P08581).
T1 construct: endogenous receptor on the cell surface; for A549 cells m4 is used; also called HGFR; on NCI-H441, EBC-1, A431, MKN-45, SK-MEL2 or HepG2 cells (cell line under assay)
As to the kind of experiment: flow cytometry, SK-MEL2 cells (c-MET+ EGFR-). (Flow cytometry measures light scatter and fluorescence of single cells or particles in a stream.)

For assay [1], the target named is T2, EGFR on cells (human, UniProt P00533).
T2 construct: endogenous receptor on the cell surface; for A549 cells m5 is used; also called on NCI-H441, EBC-1, A431, MKN-45, HepG2 or T47D cells (cell line under assay)
As to the kind of experiment: flow cytometry on NCI-H441 cells (express c-MET and EGFR), FITC anti-human Fc, n=3.
Method: NCI-H441 cells were detached with trypsin, centrifuged at 250×g for 10 min at 4° C. and resuspended in FACS buffer (1% BSA in 1×PBS). Cells were transferred to in 96 well round bottom plates at a density of 1×10⁵ cells/well on ice. Purified c-MET×EGFR bispecific antibodies (0.02-200 nM) were added in FACS buffer in triplicates for 1 h on ice. Cells were centrifuged for 1000×g for 5 min at 4° C. and washed 3 times with 100 μl FACS buffer. Cells were incubated with 500 ng/well Fluorescein (FITC)-conjugated goat anti-human Fc gamma fragment IgG specific antibody (Jackson ImmunoResearch) diluted in FACS buffer on ice for 1 h. Cells were washed again 3 times with 100 μl FACS buffer. For counter staining of non-viable cells, centrifuged cells were resuspended in 200 μl propidium iodide solution (Invitrogen) diluted in FACS buffer (1:200). […] Data were plotted as mean fluorescence intensity (raw fluorescence subtracted by background, e.g. non-stained cell control) against the logarithm of the bispecific antibody concentration and fitted to a sigmoidal dose-response curve with variable slope using GraphPad Prism 4 (GraphPad Software).

Assay [2] deals with T2, EGFR on cells. As to the kind of experiment: flow cytometry, MKN-45 cells (c-MET+++ EGFR++).
The target of assay [3] is T2, EGFR on cells. As to the kind of experiment: flow cytometry, EBC-1 cells (c-MET+++ EGFR++).
The target of assay [4] is T2, EGFR on cells. As to the kind of experiment: flow cytometry, A431 cells (c-MET+ EGFR+++).
The target of assay [5] is T3, EGFR (soluble extracellular domain) (human, UniProt P00533).
T3 construct: soluble extracellular domain; also called Human EGFR extracellular domain, R&D Systems 1095-ER
As to the kind of experiment: BLI (Octet), antibody on anti-human Fc biosensors, soluble EGFR ECD as analyte.

Assay [6] deals with T4, EGFR (epidermal growth factor receptor) on A549 cells (human, UniProt P00533 25-1210).
T4 construct: whole, on cells; Endogenous receptor of A549 cells; phosphorylation read out in cell lysates
As to the kind of experiment: flow cytometry, A549 cells (c-MET+ EGFR++).

Assay [7] has as its target T2, EGFR on cells. As to the kind of experiment: flow cytometry, HepG2 cells (c-MET+ EGFR+).
Assay [8] concerns the target T2, EGFR on cells. As to the kind of experiment: flow cytometry at 300 nM on mixed EBC-1 and T47D (low EGFR, no c-MET) cells, anti-human Fc detection; T47D population.
From the text: (A) EBC-1 as tumor model cell line with high to moderate c-MET and EGFR expression and T47D as epithelial model cell line with low EGFR expression and no c-MET expression were mixed in a ratio of 1:30. In order to distinguish the two cell lines, EBC-1 cells were stained with the green membrane dye PKH2. […] Antibody binding was detected by FITC-labeled anti-hu Fc secondary antibody. […] (B) In vitro selectivity was defined as the ratio of mean fluorescence intensity of the EBC-1 and the T47D cell population.
Assay [9] concerns the target T5, c-MET and EGFR co-expressed on cells (human, UniProt P08581;P00533).
T5 construct: endogenous receptor on the cell surface; not a complex: two separate receptors on the same cell; used as target only for bispecific c-MET x EGFR molecules, whose cell staining cannot be split between the two arms; also called cells that carry both receptors: NCI-H441, EBC-1, A431, MKN-45, A549, HepG2 (cell line under assay)
As to the kind of experiment: flow cytometry, MKN-45 cells (c-MET+++ EGFR++).

Assay [10] has as its target T5, c-MET and EGFR co-expressed on cells. As to the kind of experiment: flow cytometry, EBC-1 cells (c-MET+++ EGFR++).
For assay [11] the target is unchanged. As to the kind of experiment: flow cytometry, A431 cells (c-MET+ EGFR+++).
Assay [12] shares this target. As to the kind of experiment: flow cytometry, A549 cells (c-MET+ EGFR++).
The target is the same in assay [13]. As to the kind of experiment: flow cytometry, HepG2 cells (c-MET+ EGFR+).

Numbering of substitutions follows the chain as printed.

B1: oa 225-H (antibody, V domains shown)
VH: EVQLVQSGAEVKKPGASVKVSCKASGFSLTNYGVHWMRQAPGQGLEWIGVIWSGGNTDYNTPFTSRVTITSDKSTSTAYMELSSLRSEDTAVYYCARALDYYDYEFAYWGQGTLVTVSS
VL: DIQMTQSPSSLSASVGDRVTITCRASQSIGTNIHWYQQKPGKAPKLLIKYASESISGVPSRFSGSGYGTDFTLTISSLQPEDVATYYCQQNNEWPNTFGQGTKVEIK
notes: one-armed (monovalent) anti-EGFR SEED molecule
In general, EC50 (read off the curve) refers to the midpoint of the concentration-response curve. Lower therefore signals greater potency. As usually defined, the Kd is a measure of binding affinity in units of concentration. A lower Kd goes with higher affinity. By koff is commonly meant the first-order rate constant of dissociation. High values mean a short-lived complex, low ones a long-lived complex. A word on the kon: it is the rate constant with which the complex forms. Consider B1, for which the “MFI at 100 nM” value with c-MET on cells was found to be 20; with EGFR on cells [2], 199; in the assay with EGFR on cells [3], 287; with EGFR on cells [4] it was 2230; in assay [6] it was 184; in the assay with EGFR on cells [7] it was 53. Also, the binding result with c-MET on cells is “no binding (tested: 100 nM)”. In the assay with EGFR on cells [1], the “EC50 (read off the curve)” value was approximately 400 pM. In assay [5], this molecule gave a Kd of 0.14 nM. The koff in assay [5] came to 0.00049 s⁻¹. Moreover, the kon in assay [5] is 3.6e+06 M⁻¹ s⁻¹.

B2: B10v5x225-L (bispecific antibody, V domains shown)
VL (c-MET arm): EPVLTQPPSVSVAPGETATIPCGGDSLGSKIVHWYQQRPGQAPLLVVYDDAARPSGIPERFSGSKSGTTATLTISSVEAGDEADYFCQVYDYHSDVEVFGGGTKLTVLGQPKAA
VH (c-MET arm): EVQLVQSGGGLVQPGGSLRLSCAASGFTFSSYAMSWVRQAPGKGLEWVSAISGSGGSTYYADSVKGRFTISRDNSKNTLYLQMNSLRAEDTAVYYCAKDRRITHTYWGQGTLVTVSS
VL (EGFR arm): B1 VL with E93N, N96T
VH (EGFR arm): B1 VH with S53R, D100T
notes: c-MET x EGFR SEED bispecific
In the case of B2, the “MFI at 100 nM” value with c-MET on cells worked out at 341; in assay [9], 1220; in assay [10] it was 2040; in [11], 847; in assay [12] it was 249; in assay [13], 451. In the assay with EGFR on cells [8], the binding result is given as “binds”.
